The results in this text go back to the nanobody polyreactivity screen of Harvey et al. (2022).

The data set can be described thus: yeast display, Sf9 membrane polyspecificity reagent, FACS + sequencing; frameworks hold sequencing errors. Summed up:
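Nanobodies came from a synthetic yeast display library in Saccharomyces cerevisiae BJ5465, induced with galactose for 36–48 hours and stained for 1 hour at 4 °C with 10% biotinylated, detergent-solubilized Sf9 membrane reagent. Cells were enriched on streptavidin microbeads and then FACS-sorted, with low and high (top ~1%) gates set on anti-HA fluorescence for expression and streptavidin fluorescence for reagent binding. Each polyreactivity label reflects the gate a clone came from. Genes were amplified by colony PCR, sequenced by MiSeq 2 × 250 and filtered by CDR length.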
Turning to “QVQLVESGGGLVQAGGSLRLSCAASGSTFSENAMGWYRQAPGKERELVADITNGGSTNYADSVKGRFTISRDNAKNTVYLQMNSLKPEDTAVYYCATDSYPGLNPDFDYWGQGTQVTVSS”, the “polyreactivity (PSR sort gate)” value is “low polyreactivity”.
The same measure for “QVQLVESGGGLVQAGGSLRLSCAASGSTFSEYVMGWYRQAPGKERELVAVITTGTSTNYADSVKGRFTISRDNAKNTVYLQMNSLKPEDTAVYYCNAEYLYGVRYHDYWNDFDYWGQGTQVTVSS”: “low polyreactivity”; for “QVQLVESGGGLVQAGGSLRLSCAASGSTFSFNDRGWYRQAPGKERELVADISCSGDTTYADSVKGRFTISRDNAKNTVYLQMKSLKPEATAVYYCAARQYFRNYVYWGQGTQVTVSS”: “high polyreactivity”.
The same measure for “QVQLVESGGGLVQAGGSLRLSCAASGSTFSFYAMGWYRQAPGKERELVAAISSRGGSTYYADSVKGRFTISRDNAKNTVYLQMNSLKPEDTAVYYCAVRRYPHFYHRGGFNFNGYDYWGQGTQVTVSS”: “high polyreactivity”.
For “QVQLVESGGGLVQAGGSLRLSCAASGSTFSGNAMGWYRQAPGKERELVASITDGGNTYYADSVKGRFTISRDNAKNTVYLQMNSLKPEDTAVYYCAAEILWGGYDYWGQGTQVTVSS” the value was “low polyreactivity”; for “QVQLVESGGGLVQAGGSLRLSCAASGSTFSGNAMGWYRQAPGKEWELGATITITGGSTYYADSVKGRFTISRDNAKNTVYLQMNSLKPEDTAVYYCAKDYYAYSDYDYWGQGTQVTVSS”, “low polyreactivity”.
Take “QVQLVESGGGLVQAGGSLRLSCAASGSTFSGYAKGWYRQAPGKERELVAAINWNGGRTYYADSVKGRFTISRDNAKNTVYLQMNSLKPEDTAVYYCNKQSPRGRSAVYKYDYWGQGTQVTVSS”: the “polyreactivity (PSR sort gate)” value was “high polyreactivity”.
For “QVQLVESGGGLVQAGGSLRLSCAASGSTFSGYAMGWDRQAPGNERELVAAITSGGITNYADSVKGRFSLSRDNAKNTVYLQMNSLKPEDTAVYYCAKSVSGIGVGYDYWGQGTQVTVSS” the value was “low polyreactivity”; for “QVQLVESGGGLVQAGGSLRLSCAASGSTFSGYMGWNRQAPGKERELVAAITSGGSTNYADSVKGRFTISRDNAENTVYLQMNSLKPEDTAVYYCAAQGRWLGWRGYDYWGLGTQVTVSS”, “high polyreactivity”; for “QVQLVESGGGLVQAGGSLRLSCAASGSTFSHNAMGWSIQAPWKERELLASISSGANTYYADSVKGRFTISRDNAKNTVYLHMNSLKPEVTAVYYCAAGAHAYDHYSWFYFRMHYWGQGTQVTVSS”, “low polyreactivity”.
As to “QVQLVESGGGLVQAGGSLRLSCAASGSTFSHNAMGWYRQAPGKERELVAAIRWNGGSTHYADSVKVRFTISRDNAKNTVYLQMNSLKPEDTAVYYCAKENHYFTQGYGYWGQGTQVTVSS”, the “polyreactivity (PSR sort gate)” value is reported as “low polyreactivity”.
In the case of “QVQLVESGGGLVQAGGSLRLSCAASGSTFSHYAMGWYRQAPGKERELVATITYSGGSTYYADSVKGRFTISRDNAKNTVYLQMNSMKPEDTAVYYCAARPRFITYKRYYWGQGTQVTVSS”, the “polyreactivity (PSR sort gate)” value is on record as “high polyreactivity”.
For “QVQLVESGGGLVQAGGSLRLSCAASGSTFSIYAMGWYRPAPGKERELVAAITGTVGSTYYADSVKGRFTISRDNAKNTVYLQMNSLKPEDTAVYYCAARQVNYDYDYWGQGTQVTVSS” the value was “low polyreactivity”.
The same measure for “QVQLVESGGGLVQAGGSLRLSCAASGSTFSIYAMGWYRQAPGKEREFVAAISSSSGSTYYADSVKGRFTISRDNAMNTVYLQMNSLKPEDTAVYYCIRRYRRGGVKGVYYWGQGTQVTVSS”: “high polyreactivity”.
For “QVQLVESGGGLVQAGGSLRLSCAASGSTFSIYAMGWYRQAPGKERELVAAISSDSTYYADSVKGRFTISRDNAKNSVYLQMNSLKPEDTAVYYCAADPYFPKYYYWGQGTQVTVSS” the value was “low polyreactivity”; for “QVQLVESGGGLVQAGGSLRLSCAASGSTFSIYAMGWYRQAPGKERELVAAISSDSTYYADSVKGRFTISRDNAKNTVYLQMNSLKPEDTAVYYCAADPYFPKYYYWGQGTQVTVSS”, “low polyreactivity”.
With “QVQLVESGGGLVQAGGSLRLSCAASGSTFSKNAMAWYRQAPGKERELVASISSSGGSTYYADSVKGRFTISRDTAKNTVYLQLNSLKPEDTAVSYCATRRGRGYYYWGQGTQVTVSS”, the “polyreactivity (PSR sort gate)” value is recorded as “high polyreactivity”.
For “QVQLVESGGGLVQAGGSLRLSCAASGSTFSKNAMGWYRQAPGKERELVAAINWSTGSTHYADSVKGRFTISRDNAKNTVYLQMNRLKPEDTAVYYCAAEGPKQYDYWGQGTQVTVSS” the value was “low polyreactivity”.
As for “QVQLVESGGGLVQAGGSLRLSCAASGSTFSKYAMGCYRQAPGKERELVAAISSGGRTNYADSVKGRFTISRDNAKNTVYLQMNSLKPEDTAVYFCAALLGYWAYYYWGQGSQVTVSS”, the “polyreactivity (PSR sort gate)” value is given as “low polyreactivity”.
The same measure for “QVQLVESGGGLVQAGGSLRLSCAASGSTFSKYAMGWYRQAPGKERELVAGISRRVGSTYYADSVKGRFTISRDNAKNTVYFQMNSLKPEDTAVYYCNKVRGYPWQVVGYDYWGQGTQVTVSS”: “high polyreactivity”; for “QVQLVESGGGLVQAGGSLRLSCAASGSTFSKYAMGWYRQAPVKERELVAGIRGRGGSAYYADSVKGRFTISRDNAKNTVYLQMNSLKPEDTAVYYCAKEARLWGQGTQVTVSS”: “low polyreactivity”; for “QVQLVESGGGLVQAGGSLRLSCAASGSTFSKYVMGWYRQATGKERELVAAISGGDRTYYADSVKGRFTISRDNAKNTVYLQMNSLKPEDTAVYYCAAEVLKTRWSYDYWGQGTQVTVSS”: “high polyreactivity”.
In the case of “QVQLVESGGGLVQAGGSLRLSCAASGSTFSLYAMGWYRQAPGKERELVASSRWSGGRTYDADSVKGRFTISRDNAKNTVYLQMNSLKPEDTAVYYCAAAWRYGYGYLGQGTQVTVSS”, the “polyreactivity (PSR sort gate)” value is listed as “high polyreactivity”.
For “QVQLVESGGGLVQAGGSLRLSCAASGSTFSNNAMGWYRQAPGKERELVASTNYADSVKGRFTISRDNAKNTVYLQMNSLKPEDTAVYYCAAGAYPSWGHDYWGQGTQVTVSS” the value was “low polyreactivity”; for “QVQLVESGGGLVQAGGSLRLSCAASGSTFSPYALGWYRQATGKERELVAAISASGVGTYYADSVKGRFTISRDYAKNPVYLQMNRLIPEDTAVYYCCRDYGWDISKGRYGYWGQGTQVTVSS”, “low polyreactivity”; for “QVQLVESGGGLVQAGGSLRLSCAASGSTFSPYAMGCYRQAPGKERELVAAINYSSGSTYYADSVKGRFTISRDNAMNTVYLQLNSLKPEDTAVYYCATGWYAGFTYDYWGQGTQVTVSS”, “low polyreactivity”.
For “QVQLVESGGGLVQAGGSLRLSCAASGSTFSPYAMGWYRQAPGKERELVAAIRRGGSTNYADSVKGRFTISRDNAKNTVYLQMNSLKPEDTAVYYCAATKRRFVKFDYWGQGTQVTVSS” the value was “low polyreactivity”; for “QVQLVESGGGLVQAGGSLRLSCAASGSTFSPYAMGWYRQAPGKERELVAGITSSGGDTYYADSVKGRFTISRDNAKNTVYLQMNSLKPEDTAVYYCAAGLQGYPRKFNYWGQGTQVTVSS”, “low polyreactivity”.
For “QVQLVESGGGLVQAGGSLRLSCAASGSTFSQNAMGWYRQAPGKERELVAVISSSGGRTNYADSVKGRFTISRDNAKNTVYLQMNSLKPEDSAVYYCAKRLRVLYYYWGQGTQVTVSS” the value was “high polyreactivity”; for “QVQLVESGGGLVQAGGSLRLSCAASGSTFSQNAMGWYRQAPGKERELVAVISSSGGRTNYADSVKGRFTISRDNAKNTVYLQMNSLKPEDTAVYYCAKRLRVLYYYWGQGTQVTVSS”, “high polyreactivity”; for “QVQLVESGGGLVQAGGSLRLSCAASGSTFSQYAMGWYRQAPGKERELVAAITGSTGSTYYADSVKGRFTISRDNAKNTVYLQMNSLKPEDTAVYYCAAVSSNARHVSRRRGYYWGQGTQVTVSS”, “high polyreactivity”.
In the case of “QVQLVESGGGLVQAGGSLRLSCAASGSTFSQYAMGWYRQAPGKERELVAAITRGGRTYYADSVKGRFTISRDNAKNTVYLQMNSLKPEDTAVYYCNAVLGLLYGYDYWGQGTQVTVSS”, the “polyreactivity (PSR sort gate)” value was “high polyreactivity”.
On to “QVQLVESGGGLVQAGGSLRLSCAASGSTFSRDAMRWYRQPPGKERELVAAISSVGDTYYADSVKGRFTISRDNAKNTVYLQMNSLKPEDTAVYYCGATFVVKGTRFGYWGQGTQVTVSS”, for which the “polyreactivity (PSR sort gate)” value is “high polyreactivity”.
For “QVQLVESGGGLVQAGGSLRLSCAASGSTFSRNAMGWSRQAPGKERELVAAISRRGGTTNYADSVKGRFTISRDNAKNTVYLQMNSLKPEDTAVYYCNAQPGDYWGQGTQVTVSS” the value was “high polyreactivity”.
The same measure for “QVQLVESGGGLVQAGGSLRLSCAASGSTFSRNAMGWYRQAPGKERELVAGITTSGGRTYYADSVKGRFTISRDNAKNTVYLQMNSLKPEDTAVYYCANSGYRYFYGRPRFDYWGQGTQVTVSS”: “high polyreactivity”; for “QVQLVESGGGLVQAGGSLRLSCAASGSTFSRNTMGWYRQAPGKERELVAAISKSGGRTYYADSVKGRFTISRDNAKNTVYLQMNSLKPEDTAVYYCNAAVYAYASDYWGQGTQVTVSS”: “high polyreactivity”.
In the case of “QVQLVESGGGLVQAGGSLRLSCAASGSTFSRYAMGLYRQATGKDRELVAAISWRGGRTYYADSVKGRFTISRDNAKNTVYLQMNSLKPEDTAVDYCAGLGDDATSYGYWGHGTQVTVSS”, the “polyreactivity (PSR sort gate)” value is recorded as “high polyreactivity”.
For “QVQLVESGGGLVQAGGSLRLSCAASGSTFSRYAMGWYRQAPGKERELVAAISSSGGSTYYADSVKGRFTISRDNAKNTVYLQMNSLKPEDTAVYYCAARIWRTRRYDYWGQGTQVTVSS” the value was “high polyreactivity”; for “QVQLVESGGGLVQAGGSLRLSCAASGSTFSRYAMGWYRQAPGKERELVAAISWRGGRTYYADSVKGRFTISRDNAKNTVYLQMNSLKPADTAVYYCNAVSYFTSQRYDYWGQGTQVTVSS”, “high polyreactivity”; for “QVQLVESGGGLVQAGGSLRLSCAASGSTFSRYTMGWYRQAPGKERELVAAISYRGGSTYYADSVKGRFTISRDNAKNTVYLQMNSLKPEDTAVYYCAAEYRVEGSDYDYWGQGSQVTVSS”, “low polyreactivity”.
The same measure for “QVQLVESGGGLVQAGGSLRLSCAASGSTFSRYTMGWYRQAPGKERELVAAITWSGGRTYYADSVKGRFTISRDNAKNTVYLQMNSLKPEDTAVSYCNVDSSRYSGYDYWGQGTQVTVSS”: “high polyreactivity”.
